Measured values: US20240075139A1

B1: 4T0570 (antibody, V domains shown)
VH: QVQLVQSGAEVKKPGASIKVSCKASGYTFVSKYIHWVRQAPGQGLEWMGIINPSGGRTDYAQKFQGRVTISRDTSTSTVYMELSSLRSEDTAFYYCARALPFRVTGARDVFDIWGQGTMVTVSS
VL: DIQMTQSPSSLSASVGDRVTITCRASQGISTNLAWFQQRPGKAPKSLVYAASTLQNGVPSKFSGSGSGTDFTLTISSLQPEDFATYYCQQYYTYPLTFGGGTKVEIK
B2: 4m0368 (antibody, V domains shown)
VH: QVQLQESGPGLVKPSGTLSLTCAVSGGSISGTNWWTWVRQPPGRGLEWIGEIYYRGSPNYNPSLKSRVTISVDQSKSQFSLKLTSVTAADTAVYYCLRLSHYGGAWGQGTLVTVSS
VL: DIQLTQSPSSLSASVGDRVTITCRASQSISTYLNWYQQKPGKAPKFLIFSASNLQSGVPSRFSGGGSGTDFTLTISSLQPEDFATYYCQQTYNTPRTFGQGTKVEIK
B3: 3T0265 (antibody, V domains shown)
VH: EVQLVESGGNLAKPGGSLRLSCAASGFTFSDAWMTWVRQAPGKGLEWVGRIKSNADGGATEYAAPVRGRFTISRDDSRSSLFLQMNSLKTEDTAVYYCLTPPPRRYWGQGILVTVSS
VL: QSVLTQPPSVSGAPGQRVAISCTGSYSNIGAGYDVHWYQQFPGAAPKLLIYAYTNRPAGVPDRFSGSKSGSSASLVISGLQADDEADYYCQSYDARLRDGEVFGGGTKLTV
B4: 3T0123 (antibody, V domains shown)
VH: QVQLVQSGSEVKKPGASVKVSCQASGYRFANYGISWVRQAPGQGLEWMGWISPLKRDPDYAQNFQGRVTMSRDTSTNTAYMELRGLTSGDTAVYFCARGLGDSYSNAWFVYVFDYWGQGSPVTVSS
VL: EIVMTQSPATLSVSPGERVTLSCRTSQRIHTNLAWYQQKSGQAPRLVMYDAFTRAPGVPARFSGGGSETEFTLTISSLQSEDFALYYCQQYSQRPTFGLGTKLEIK
B5: 4T0578 (antibody, V domains shown)
VH: EVQLVESGGALVQPGGSLRLSCAASGFTFSRYDIHWVRQASGKGLEWVSAIGKAGDAYYAGSVRGRFTISRENAKNSLYLQMNSLRAGDTAVYYCARASFGDLYFDLWGRGTLVTVSS
VL: DIVMTQSPDSLAVSLGERATINCKSSQSLLHSSNNKNSVAWYQQKPGQPPKLLIYWASTREFGVPDRFSGSGSGTDFALTISSLQAEDVAVYVCQQYYNSPLTFGPGTKVDIK

What follows are molecules tested against EBOV Mayinga (GenBank: NC_002549) (Zaire Ebolavirus (EBOV Mayinga)) (UniProt Q05320) (assay: cell-based or functional assay).
UniProt Q05320, sequence (Q05320 33-676 limits assumed): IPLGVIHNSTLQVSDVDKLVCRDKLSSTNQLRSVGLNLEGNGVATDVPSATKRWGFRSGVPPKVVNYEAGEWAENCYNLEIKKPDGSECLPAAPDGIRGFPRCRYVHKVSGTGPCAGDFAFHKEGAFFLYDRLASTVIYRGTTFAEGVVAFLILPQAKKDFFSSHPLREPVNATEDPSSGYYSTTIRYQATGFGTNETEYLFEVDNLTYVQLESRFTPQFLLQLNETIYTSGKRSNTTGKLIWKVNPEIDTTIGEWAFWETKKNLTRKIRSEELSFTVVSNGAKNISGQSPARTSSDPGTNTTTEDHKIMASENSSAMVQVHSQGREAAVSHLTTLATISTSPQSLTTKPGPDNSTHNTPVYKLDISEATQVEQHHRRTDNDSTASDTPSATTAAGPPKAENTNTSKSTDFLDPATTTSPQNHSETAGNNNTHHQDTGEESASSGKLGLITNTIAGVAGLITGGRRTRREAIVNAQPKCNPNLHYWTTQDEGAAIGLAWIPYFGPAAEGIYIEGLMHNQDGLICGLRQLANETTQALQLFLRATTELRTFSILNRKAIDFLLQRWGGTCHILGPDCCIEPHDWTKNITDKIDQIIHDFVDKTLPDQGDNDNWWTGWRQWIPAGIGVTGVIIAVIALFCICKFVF
In the case of mAb114 (antibody), the neutralization concentration (GMC, CPE reduction on Vero C1008 cells) is reported as 0.744 µg/mL.

Target: EBOV Mayinga (GenBank: NC_002549) (Zaire Ebolavirus (EBOV Mayinga)) (UniProt Q05320)
Assay: cell-based or functional assay
Remark: another data set of the same source
B1 showed a neutralization concentration (GMC, CPE reduction on Vero C1008 cells) of 0.09 µg/mL. In the case of B2, the neutralization concentration (GMC, CPE reduction on Vero C1008 cells) is reported as 0.13 µg/mL. For B3, the neutralization concentration (GMC, CPE reduction on Vero C1008 cells) was 0.44 µg/mL. Work on B4 yielded a neutralization concentration (GMC, CPE reduction on Vero C1008 cells) of 0.52 µg/mL. B5 showed a neutralization concentration (GMC, CPE reduction on Vero C1008 cells) of 0.45 µg/mL.
